Molecular target: recombinant fusion p30-mFc protein (ASFV p30 fused to mouse IgG1 Fc) (African swine fever virus (strain not stated)) (UniProt P34204)
Test: SEC-MALS

For “recombinant fusion p30-mFc protein (ASFV p30 fused to mouse IgG1 Fc) (from UniProt P34204 1-204) (Fc fusion)”, the stoichiometry N was 2.

Reference: article PMC9769802
